This passage reports Kd and yeast surface expression results from the FLAb antibody collection (doi:10.7554/elife.23156).

B1: scFv; the commonest letter at each place (parent)
chain 1: EVKLDETGGGLVQPGRPMKLSCVASGFTFSDYWMNWVRQSPEKGLEWVAQIRNKPYNYETYYSDSVKGRFTISRDDSKSSVYLQMNNLRVEDMGIYYCTGSYYGMDYWGQGTSVTVS
chain 2: DVVMTQTPLSLPVSLGDQASISCRSSQSLVHSNGNTYLRWYLQKPGQSPKVLIYKVSNRFSGVPDRFSGSGSGTDFTLKISRVEAEDLGVYFCSQSTHVPWTFGGGTKLEIK

In the data set “fluorescein” the parent is B1. The data set is described as follows: Kd (Tite-Seq). The following applies: with fluorescein; format: scFv 4-4-20, heavy + light.
Data set [1] covers variants of B1. Put plainly: yeast surface expression (ratio to wild type); higher = more expressed. The following applies: format: scFv 4-4-20, heavy + light.

Bounds are passed on as bounds.

In the case of chain 1 S101Q G109S, the Kd with fluorescein is no less than 10 µM. For the same variant, the yeast surface expression in data set [1] came to 0.645.
In the same order, the values of chain 1 G100S M105R are 0.311 µM and 0.929.
As to chain 1 M34L N35P, the Kd with fluorescein was no less than 10 µM. In data set [1], the yeast surface expression turned out to be 1.48.
On the same counts, the results for chain 1 S30D N35Q are no less than 10 µM and 0.883.
In the same order, the values of chain 1 Y107A W108A are no less than 10 µM and 0.351.
On the same counts, the results for chain 1 W108D G109Y are no less than 10 µM and 0.271.
chain 1 M105I Y107Q: the Kd with fluorescein turned out to be 8.13 µM. Besides, the yeast surface expression in data set [1] worked out at 0.872.
As to chain 1 S30W N35V, the dissociation constant Kd with fluorescein was no less than 10 µM. In addition, the yeast surface expression in data set [1] stood at 0.273.
As to chain 1 N35G, in the data set with fluorescein, the Kd stood at 0.0102 µM. For the same variant, the yeast surface expression in data set [1] was 0.989.
In the same order, the values of chain 1 N35P are no less than 10 µM and 0.672.
On the same counts, the results for chain 1 S101V Y102E are no less than 10 µM and 0.509.
With chain 1 D31H M34Y, in the data set with fluorescein, the Kd is 0.00279 µM. For the same variant, the yeast surface expression in data set [1] turned out to be 0.671.
On the same counts, the results for chain 1 D31H M34Q are no less than 10 µM and 0.268.
As for chain 1 Y32N M34G, the Kd in the data set with fluorescein is no less than 10 µM. Also, in data set [1], the yeast surface expression was 0.608.
On the same counts, the results for chain 1 T28S S30I are 0.00708 µM and 0.741.
Consider chain 1 T28S S30M, for which the Kd with fluorescein came to 0.00175 µM. In addition, in data set [1], the yeast surface expression was 0.95.
In the same order, the values of chain 1 Y102Q Y103E are no less than 10 µM and 0.977.
Consider chain 1 M105E, for which the Kd with fluorescein came out at 4.15 µM. The yeast surface expression in data set [1] stood at 1.01.
On the same counts, the results for chain 1 S30F are 0.00205 µM and 0.828.
In the same order, the values of chain 1 S30Y are 0.00146 µM and 0.759.
On the same counts, the results for chain 1 S30L are 0.00638 µM and 0.801.
On to chain 1 Y103H Y107I, for which the equilibrium dissociation constant (Kd) in the data set with fluorescein is no less than 10 µM. The yeast surface expression in data set [1] was 1.25.
For chain 1 T28M V37G, the dissociation constant Kd with fluorescein is no less than 10 µM. Moreover, the yeast surface expression in data set [1] was found to be 0.468.
With chain 1 T28L N35D W36N, the equilibrium dissociation constant (Kd) with fluorescein is no less than 10 µM. Moreover, the yeast surface expression in data set [1] worked out at 0.674.
In the same order, the values of chain 1 T28I N35R are no less than 10 µM and 0.849.
In the same order, the values of chain 1 D31C N35Y are no less than 10 µM and 0.763.
On the same counts, the results for chain 1 S101K D106M are no less than 10 µM and 0.229.
Regarding chain 1 W36S V37D, the Kd with fluorescein was no less than 10 µM. Moreover, in data set [1], the yeast surface expression amounted to 1.34.
In the case of chain 1 Y32W W36Q, the Kd with fluorescein is no less than 10 µM. For the same variant, the yeast surface expression in data set [1] was determined as 0.936.
For chain 1 M105K Y107T, in the data set with fluorescein, the dissociation constant Kd stood at 0.712 µM. Moreover, the yeast surface expression in data set [1] is 0.559.
For the variant chain 1 S101Y W108V, the Kd in the data set with fluorescein was no less than 10 µM. The yeast surface expression in data set [1] is 0.397.
Turning to chain 1 Y103V G109L, the Kd with fluorescein was no less than 10 µM. The yeast surface expression in data set [1] was found to be 0.247.
chain 1 Y32A V37Y: in the data set with fluorescein, the Kd worked out at 0.205 µM. Moreover, the yeast surface expression in data set [1] turned out to be 1.23.
On to chain 1 T28P V37S, for which, in the data set with fluorescein, the Kd worked out at 0.000939 µM. Besides, in data set [1], the yeast surface expression was found to be 0.884.
In the same order, the values of chain 1 F29V Y32W M34W are 0.185 µM and 1.07.
For the variant chain 1 M105Q G109M, the Kd with fluorescein is no less than 10 µM. The yeast surface expression in data set [1] was 0.216.
In the case of chain 1 T28A W33I, the Kd with fluorescein was no less than 10 µM. Also, the yeast surface expression in data set [1] came to 1.15.
Consider chain 1 Y102M M105F, for which, in the data set with fluorescein, the equilibrium dissociation constant (Kd) was no less than 10 µM. Moreover, in data set [1], the yeast surface expression is 0.995.
On the same counts, the results for chain 1 S30L W33I are no less than 10 µM and 0.639.
In the case of chain 1 G100E G104I, the Kd in the data set with fluorescein is no less than 10 µM. In addition, the yeast surface expression in data set [1] amounted to 0.281.
In the same order, the values of chain 1 Y32I W36G are no less than 10 µM and 0.465.
As to chain 1 F29V Y32S, the Kd with fluorescein came to 8.13 µM. In data set [1], the yeast surface expression was found to be 0.999.
On the same counts, the results for chain 1 W33K M34T are no less than 10 µM and 0.893.
On the same counts, the results for chain 1 G104D W108T are no less than 10 µM and 0.417.
On to chain 1 G104M G109L, for which the dissociation constant (Kd) in the data set with fluorescein is no less than 10 µM. Moreover, the yeast surface expression in data set [1] was 0.0989.
Regarding chain 1 D31F N35S, the Kd with fluorescein is no less than 10 µM. Besides, the yeast surface expression in data set [1] is 0.367.
Take chain 1 F29P Y32A: the dissociation constant Kd in the data set with fluorescein amounted to 2.47 µM. The yeast surface expression in data set [1] was 1.12.
For chain 1 T28Y D31Y, the dissociation constant (Kd) in the data set with fluorescein is 0.00184 µM. Moreover, the yeast surface expression in data set [1] came out at 0.779.
On to chain 1 M105G G109S, for which the equilibrium dissociation constant (Kd) with fluorescein was no less than 10 µM. The yeast surface expression in data set [1] stood at 0.794.
On the same counts, the results for chain 1 T28V F29Q are 0.004 µM and 0.917.
For the variant chain 1 M105L Y107I, the Kd with fluorescein was 2.34 µM. Besides, in data set [1], the yeast surface expression amounted to 1.09.
Take chain 1 Y102W Y107S: the dissociation constant Kd in the data set with fluorescein came out at 0.0944 µM. For the same variant, the yeast surface expression in data set [1] was found to be 0.557.
On the same counts, the results for chain 1 T28Q W33V are no less than 10 µM and 1.34.
As for chain 1 Y103P D106T W108C, the Kd with fluorescein is no less than 10 µM. Besides, the yeast surface expression in data set [1] was determined as 0.258.
On to chain 1 G104V G109W, for which the Kd in the data set with fluorescein is no less than 10 µM. In addition, the yeast surface expression in data set [1] turned out to be 1.57.
In the same order, the values of chain 1 T28I W33K are no less than 10 µM and 0.617.
In the same order, the values of chain 1 D106N W108I are 0.00871 µM and 0.556.
In the same order, the values of chain 1 F29T M34K are no less than 10 µM and 0.35.

For orientation: Kd means the concentration at which binding is half-saturated.
